{"source": "patent US7858298", "key": {"[1]": {"target": "human CCR5 expressed on the cell surface (human) (UniProt P51681)", "assay": "cell-based or functional assay"}, "[2]": {"target": "CD4 on CD4+ target cells (human) (UniProt P01730)", "assay": "cell-based or functional assay"}}, "data": [{"substance": "RANTES + MIP-1α + MIP-1β", "values": [{"measurement": "% Fusion (RET assay), LW5 CD4+ cells with HeLa-JR-FL cells; R/Mα/Mβ 106/533/133 ng/ml", "setting": "[1]", "result": 39, "unit": "%"}, {"measurement": "% Fusion (RET assay), PM1 cells with HeLa-JR-FL cells; R/Mα/Mβ 80/400/100 ng/ml", "setting": "[1]", "result": 1, "unit": "%"}, {"measurement": "% luciferase activity, entry of ADA env-complemented virus into PM1 cells; R/Mα/Mβ 50/50/50 ng/ml", "setting": "[1]", "result": 3, "unit": "%"}, {"measurement": "% luciferase activity, entry of BaL env-complemented virus into PM1 cells; R/Mα/Mβ 50/50/50 ng/ml", "setting": "[1]", "result": 2, "unit": "%"}, {"measurement": "% luciferase activity, entry of JR-FL env-complemented virus into LW4 CD4+ T-cells; R/Mα/Mβ 200/200/200 ng/ml", "setting": "[1]", "result": 14, "unit": "%"}, {"measurement": "% luciferase activity, entry of JR-FL env-complemented virus into LW5 CD4+ T-cells; R/Mα/Mβ 200/200/200 ng/ml", "setting": "[1]", "result": 15, "unit": "%"}, {"measurement": "luciferase activity, ADA entry into 3T3-CD4 cells expressing CKR-5, with R/Mα/Mβ 400 ng/ml each (28400 without) (luciferase activity (unit not given))", "setting": "[1]", "result": 1220}, {"measurement": "luciferase activity, ADA entry into COS-CD4 cells expressing CKR-5, with R/Mα/Mβ 400 ng/ml each (153000 without) (luciferase activity (unit not given))", "setting": "[1]", "result": 3210}, {"measurement": "luciferase activity, ADA entry into HeLa-CD4 cells expressing CKR-5, with R/Mα/Mβ 400 ng/ml each (310000 without) (luciferase activity (unit not given))", "setting": "[1]", "result": 6340}, {"measurement": "luciferase activity, BaL entry into 3T3-CD4 cells expressing CKR-5, with R/Mα/Mβ 400 ng/ml each (11700 without) (luciferase activity (unit not given))", "setting": "[1]", "result": 756}, {"measurement": "luciferase activity, BaL entry into COS-CD4 cells expressing CKR-5, with R/Mα/Mβ 400 ng/ml each (58800 without) (luciferase activity (unit not given))", "setting": "[1]", "result": 756}, {"measurement": "luciferase activity, BaL entry into HeLa-CD4 cells expressing CKR-5, with R/Mα/Mβ 400 ng/ml each (104000 without) (luciferase activity (unit not given))", "setting": "[1]", "result": 750}]}, {"substance": "monoclonal antibody OKT4A", "values": [{"measurement": "% Fusion (RET assay), LW5 CD4+ cells with HeLa-BRU cells; OKT4A 3 ug/ml", "setting": "[2]", "result": 0, "unit": "%"}, {"measurement": "% Fusion (RET assay), LW5 CD4+ cells with HeLa-JR-FL cells; OKT4A 3 ug/ml", "setting": "[2]", "result": 0, "unit": "%"}]}, {"substance": "recombinant human MIP-1α (from UniProt P10147 27-92) (ligand)", "values": [{"measurement": "% Fusion (RET assay), LW5 CD4+ cells with HeLa-JR-FL cells; MIP-1α 533 ng/ml", "setting": "[1]", "result": 72, "unit": "%"}, {"measurement": "% Fusion (RET assay), PM1 cells with HeLa-JR-FL cells; MIP-1α 400 ng/ml", "setting": "[1]", "result": 39, "unit": "%"}, {"measurement": "% luciferase activity, entry of ADA env-complemented virus into PM1 cells; MIP-1α 100 ng/ml", "setting": "[1]", "result": 54, "unit": "%"}, {"measurement": "% luciferase activity, entry of BaL env-complemented virus into PM1 cells; MIP-1α 100 ng/ml", "setting": "[1]", "result": 54, "unit": "%"}]}, {"substance": "recombinant human MIP-1β (from UniProt P13236 24-92) (ligand)", "values": [{"measurement": "% Fusion (RET assay), LW5 CD4+ cells with HeLa-JR-FL cells; MIP-1β 133 ng/ml", "setting": "[1]", "result": 44, "unit": "%"}, {"measurement": "% Fusion (RET assay), PM1 cells with HeLa-JR-FL cells; MIP-1β 100 ng/ml", "setting": "[1]", "result": 13, "unit": "%"}, {"measurement": "% luciferase activity, entry of ADA env-complemented virus into PM1 cells; MIP-1β 100 ng/ml", "setting": "[1]", "result": 6, "unit": "%"}, {"measurement": "% luciferase activity, entry of BaL env-complemented virus into PM1 cells; MIP-1β 100 ng/ml", "setting": "[1]", "result": 1, "unit": "%"}]}, {"substance": "recombinant human RANTES (from UniProt P13501 24-91) (ligand)", "values": [{"measurement": "% Fusion (RET assay), LW5 CD4+ cells with HeLa-JR-FL cells; RANTES 106 ng/ml", "setting": "[1]", "result": 65, "unit": "%"}, {"measurement": "% Fusion (RET assay), PM1 cells with HeLa-JR-FL cells; RANTES 80 ng/ml", "setting": "[1]", "result": 8, "unit": "%"}, {"measurement": "% luciferase activity, entry of ADA env-complemented virus into PM1 cells; RANTES 100 ng/ml", "setting": "[1]", "result": 1, "unit": "%"}, {"measurement": "% luciferase activity, entry of BaL env-complemented virus into PM1 cells; RANTES 100 ng/ml", "setting": "[1]", "result": 1, "unit": "%"}]}]}
